Assay results from US20230322924A1.
Where a chain is given by its changes, count along the chain named. Numbers in names are those of the source.

B1: CD3B312 (antibody, V domains shown)
VH: QVQLQQSGPRLVRPSQTLSLTCAISGDSVFNNNAAWSWIRQSPSRGLEWLGRTYYRSKWLYDYAVSVKSRITVNPDTSRNQFTLQLNSVTPEDTALYYCARGYSSSFDYWGQGTLVTVSS
VL: QSALTQPASVSGSPGQSITISCTGTSSNIGTYKFVSWYQQHPDKAPKVLLYEVSKRPSGVSSRFSGSKSGNTASLTISGLQAEDQADYHCCSYAGSGTLLFGGGTKLTVL
B2: BLW-2E6 variant CD3H219/CD3L137 (antibody, V domains shown)
VH: B1 VH
VL: B1 VL with D43G, L49M, L50I, S62N, Q85E, H89Y
B3: CD3B376 (antibody, human IgG4 S228P, lambda, F234A L235A, V domains shown)
VH: B1 VH
VL: QSALTQPASVSGSPGQSITISCTGTSSNIGTYKFVSWYQQHPDKAPKVLLYEVSKRPSGVSSRFSGSKSGNTASLTISGLQAEDQADYHCVSYAGSGTLLFGGGTKLTVLG
B4: BLW-2E6 variant CD3H219/CD3L160 (LC C91L) (antibody, V domains shown)
VH: B1 VH
VL: B1 VL with C91L
B5: monovalent CD3B376 construct (bispecific antibody, part only; not given: unnamed target arm, not shown: another chain or arm of the molecule; small tags and cut ends)
heavy: QVQLQQSGPRLVRPSQTLSLTCAISGDSVFNNNAAWSWIRQSPSRGLEWLGRTYYRSKWLYDYAVSVKSRITVNPDTSRNQFTLQLNSVTPEDTALYYCARGYSSSFDYWGQGTLVTVSSASTKGPSVFPLAPCSRSTSESTAALGCLVKDYFPEPVTVSWNSGALTSGVHTFPAVLQSSGLYSLSSVVTVPSSSLGTKTYTCNVDHKPSNTKVDKRVESKYGPPCPPCPAPEAAGGPSVFLFPPKPKDTLMISRTPEVTCVVVDVSQEDPEVQFNWYVDGVEVHNAKTKPREEQFNSTYRVVSVLTVLHQDWLNGKEYKCKVSNKGLPSSIEKTISKAKGQPREPQVYTLPPSQEEMTKNQVSLTCLVKGFYPSDIAVEWESNGQPENNYKTTPPVLDSDGSFLLYSKLTVDKSRWQEGNVFSCSVMHEALHNHYTQKSLSLSLGK
light: QSALTQPASVSGSPGQSITISCTGTSSNIGTYKFVSWYQQHPDKAPKVLLYEVSKRPSGVSSRFSGSKSGNTASLTISGLQAEDQADYHCVSYAGSGTLLFGGGTKLTVLGQPKAAPSVTLFPPSSEELQANKATLVCLISDFYPGAVTVAWKADSSPVKAGVETTTPSKQSNNKYAASSYLSLTPEQWKSHRSYSCQVTHEGSTVEKTVAPTECS
B6: monovalent CD3B450 construct (bispecific antibody, part only; not given: unnamed target arm, not shown: another chain or arm of the molecule; small tags and cut ends)
heavy: B5 heavy with R10G, R13K, V73I, R79K, T83S, L96V
light: B5 light with D43G, L49M, L50I, S62N, Q85E, H89Y

Each binder was assayed against recombinant human CD3ε (1-27) peptide with a C-terminal Tencon25 fusion (human) (UniProt P07766) (assay: ProteOn SPR, mAb captured by anti-human Fc, antigen as analyte).
recombinant human CD3ε (1-27) peptide with a C-terminal Tencon25 fusion (human), sequence (P07766 22-48): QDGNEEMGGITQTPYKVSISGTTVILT

In order of falling Kd:
1. B4  41.1 nM
2. B2  32.9 nM
3. B3  23.3 nM
4. B1  20.6 nM

In order of rising koff:
1. B1  0.00187 s⁻¹
2. B2  0.00202 s⁻¹
3. B3  0.00237 s⁻¹
4. B4  0.00405 s⁻¹

In order of rising kon:
1. B2  61300 M⁻¹ s⁻¹
2. B1  90800 M⁻¹ s⁻¹
3. B4  98400 M⁻¹ s⁻¹
4. B3  102000 M⁻¹ s⁻¹

Each binder was assayed against human CD3 on human T cells (human) (UniProt P07766) (assay: competition with AF488 SP-34 tracer on human pan T cells, flow cytometry).
human CD3 on human T cells (human), sequence (P07766 23-207 limits assumed): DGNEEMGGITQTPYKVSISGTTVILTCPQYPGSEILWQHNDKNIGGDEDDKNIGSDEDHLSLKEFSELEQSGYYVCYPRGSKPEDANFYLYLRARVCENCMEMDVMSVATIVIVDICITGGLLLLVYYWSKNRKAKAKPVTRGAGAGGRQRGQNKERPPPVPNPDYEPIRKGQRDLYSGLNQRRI

In order of rising IC50:
1. B5  409 nM
2. B6  1010 nM

The binders below were run against human CD3 on human T cells (human) (UniProt P07766) (assay: Kd = IC50/(1+[T]/KdT) from competition with AF488 SP-34 on human pan T cells).

In order of rising Kd:
1. B5  103 nM
2. B6  254 nM
